Columns and labels:
[1] = molecular target: T1, human IgE (full length human immunoglobulin E) (human, UniProt P01854 1-546); test: ELISA, immunoglobulin coated at 4 µg/mL, anti-human IgG2 detection
Protocol: (§1) Wells were washed 3× with 150 μL wash buffer (0.05% Tween-20 (Sigma, Cat. No. P7949)/PBS) then blocked with 150 μL/well blocking buffer (2.5% BSA (Sigma, Cat. No. A7030)/PBS) for 2 hours at room temperature. Wells were washed 3× with 150 μL wash buffer/well. […] Antibodies were diluted in diluent buffer (PBS/1% BSA/0.05% Tween-20) and this was added to blank control wells (duplicate wells for each secondary antibody used). Antibodies were incubated for 2 hours at room temperature. Wells were washed 3× with 150 μL wash buffer/well. Binding of control antibodies to immunoglobulin was detected with anti-mouse IgG-HRP conjugate (Sigma, Cat. No. A4416) diluted 1:8000 in diluent buffer. 50 μL/well was added to control antibody and blank wells. Wells were incubated for 1 hour at room temperature, then washed 3× with 150 μL wash buffer/well. 50 μl OPD (Dako, Cat. No. […] Wells were incubated for 1 hour at room temperature then washed 3× with 150 μL wash buffer/well. Streptavidin-HRP (Amersham Bioscience, Cat. No. RPN 1231) diluted 1:2000 in diluent buffer was added to all wells and incubated for 45 minutes at room temperature. Wells were washed (3×150 μL wash buffer).

[2] = molecular target: T2, human IgA (human); test: as above
T2 construct: bought preparation coated on the ELISA plate
Protocol: as §1

[3] = molecular target: T3, human IgG1 (human, UniProt P01857-1 1-330 = IgG part); test: as above
T3 construct: bought preparation coated on the ELISA plate; not shown: bought immunoglobulin, light chain not described
T3 sequence (P01857 other isoform, or with tags, fused parts or gaps): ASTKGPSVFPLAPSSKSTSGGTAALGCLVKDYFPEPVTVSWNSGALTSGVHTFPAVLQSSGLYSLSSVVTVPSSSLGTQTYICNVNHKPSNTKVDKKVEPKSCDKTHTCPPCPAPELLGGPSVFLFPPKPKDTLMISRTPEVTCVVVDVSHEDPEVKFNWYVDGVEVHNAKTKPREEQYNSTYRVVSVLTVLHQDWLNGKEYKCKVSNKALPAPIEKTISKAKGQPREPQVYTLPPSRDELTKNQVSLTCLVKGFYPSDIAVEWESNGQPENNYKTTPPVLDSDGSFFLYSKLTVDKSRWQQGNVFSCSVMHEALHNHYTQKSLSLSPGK
Protocol: as §1

[4] = molecular target: T4, human IgG3 (human, UniProt P01860-1 1-377); test: as above
T4 construct: bought preparation coated on the ELISA plate; not shown: bought immunoglobulin, light chain not described
T4 sequence (P01860 other isoform, or with tags, fused parts or gaps): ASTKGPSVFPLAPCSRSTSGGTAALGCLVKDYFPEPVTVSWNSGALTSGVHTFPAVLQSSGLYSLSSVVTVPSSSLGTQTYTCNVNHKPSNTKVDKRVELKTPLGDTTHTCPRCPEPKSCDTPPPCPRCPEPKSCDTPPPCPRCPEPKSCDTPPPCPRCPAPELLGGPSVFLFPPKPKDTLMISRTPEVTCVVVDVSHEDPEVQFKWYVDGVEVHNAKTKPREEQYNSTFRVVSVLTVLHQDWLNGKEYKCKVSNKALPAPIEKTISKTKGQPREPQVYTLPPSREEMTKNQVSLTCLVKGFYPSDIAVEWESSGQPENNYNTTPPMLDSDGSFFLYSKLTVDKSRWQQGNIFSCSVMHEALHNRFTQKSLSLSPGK
Protocol: as §1

[5] = molecular target: T1, human IgE (full length human …); test: serum free IgE depletion ELISA; DIN 0155, initial free IgE 93 ng/mL
[6] = molecular target: T1, human IgE (full length human …); test: serum free IgE depletion ELISA; DIN 0649, initial free IgE 93 ng/mL
[7] = molecular target: T1, human IgE (full length human …); test: serum free IgE depletion ELISA; DIN 0284, initial free IgE 339 ng/mL
[8] = molecular target: T1, human IgE (full length human …); test: serum free IgE depletion ELISA; DIN 0347, initial free IgE 221 ng/mL
[9] = molecular target: T1, human IgE (full length human …); test: serum free IgE depletion ELISA; DIN 0591, initial free IgE 152 ng/mL
[10] = molecular target: T1, human IgE (full length human …); test: serum free IgE depletion ELISA; DIN 0382, initial free IgE 2827 ng/mL
[11] = molecular target: T1, human IgE (full length human …); test: serum free IgE depletion ELISA; DIN 0748, initial free IgE 4609 ng/mL
[12] = molecular target: T1, human IgE (full length human …); test: serum free IgE depletion ELISA; DIN 0011 experiment 1, initial free IgE 555 ng/mL
[13] = molecular target: T1, human IgE (full length human …); test: serum free IgE depletion ELISA; DIN 0011 experiment 2, initial free IgE 326 ng/mL
[14] = molecular target: T1, human IgE (full length human …); test: serum free IgE depletion ELISA; DIN 0321 experiment 1, initial free IgE 262 ng/mL
[15] = molecular target: T1, human IgE (full length human …); test: serum free IgE depletion ELISA; DIN 0321 experiment 2, initial free IgE 265 ng/mL
[16] = molecular target: T1, human IgE (full length human …); test: serum free IgE depletion ELISA; DIN 0451 experiment 1, initial free IgE 557 ng/mL
[17] = molecular target: T1, human IgE (full length human …); test: serum free IgE depletion ELISA; DIN 0451 experiment 2, initial free IgE 534 ng/mL
[18] = molecular target: T1, human IgE (full length human …); test: serum free IgE depletion ELISA; DIN 0623 experiment 1, initial free IgE 145 ng/mL
[19] = molecular target: T1, human IgE (full length human …); test: serum free IgE depletion ELISA; DIN 0623 experiment 2, initial free IgE 133 ng/mL
[20] = molecular target: T1, human IgE (full length human …); test: serum free IgE depletion ELISA; DIN 0632 experiment 1, initial free IgE 532 ng/mL
[21] = molecular target: T1, human IgE (full length human …); test: serum free IgE depletion ELISA; DIN 0632 experiment 2, initial free IgE 289 ng/mL

T1 sequence (P01854 whole entry): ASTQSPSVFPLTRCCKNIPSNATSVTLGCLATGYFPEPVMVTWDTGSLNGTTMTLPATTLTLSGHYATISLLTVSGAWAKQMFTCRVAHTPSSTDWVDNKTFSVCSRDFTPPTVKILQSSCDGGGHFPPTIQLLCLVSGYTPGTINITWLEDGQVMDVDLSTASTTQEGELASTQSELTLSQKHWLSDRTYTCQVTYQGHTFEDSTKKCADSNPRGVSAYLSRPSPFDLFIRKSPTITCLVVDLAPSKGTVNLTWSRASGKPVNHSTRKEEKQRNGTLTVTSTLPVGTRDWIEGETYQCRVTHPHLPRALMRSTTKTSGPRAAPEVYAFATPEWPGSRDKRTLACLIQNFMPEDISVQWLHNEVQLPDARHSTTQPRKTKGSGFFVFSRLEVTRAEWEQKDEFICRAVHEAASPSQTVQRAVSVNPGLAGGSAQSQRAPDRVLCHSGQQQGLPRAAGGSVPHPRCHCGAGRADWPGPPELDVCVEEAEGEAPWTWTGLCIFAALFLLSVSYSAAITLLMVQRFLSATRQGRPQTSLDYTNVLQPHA

A290 nm [1]: 2.57 absorbance | A290 nm [2]: 0.04 absorbance | A290 nm [3]: 0.07 absorbance | A290 nm [4]: 0.04 absorbance | IC25ng/mL [5]: 1.81 µg/mL | IC25ng/mL [6]: 1.95 µg/mL | IC25ng/mL [7]: 2.45 µg/mL | IC25ng/mL [8]: 4.92 µg/mL | IC25ng/mL [9]: 2.35 µg/mL | IC25ng/mL [10]: 25 µg/mL | IC25ng/mL [11]: 25.1 µg/mL | IC25ng/mL [12]: 3.3 µg/mL | IC25ng/mL [13]: 6.34 µg/mL | IC25ng/mL [14]: 1.34 µg/mL | IC25ng/mL [15]: 7.9 µg/mL | IC25ng/mL [16]: 11.6 µg/mL | IC25ng/mL [17]: 39.7 µg/mL | IC25ng/mL [18]: 0.5 µg/mL | IC25ng/mL [19]: 4.13 µg/mL | IC25ng/mL [20]: 8.91 µg/mL | IC25ng/mL [21]: 6.31 µg/mL
B1: recombinant 5.948.1 (antibody, human IgG2, kappa, V domains shown)
VH: QVQLVQSGAEVKKPGASVKVSCKASGYTFTSYDINWVRQATGQGLEWMGWMDPNSGNTGYAQKFQGRVTMTRNTSISTAYMELSSLRSEDTAVYYCARGHYDSDGYYSFSGMDVWGQGTTVTVSS
VL: not shown
notes: human IgG2 kappa; two batches (762.8 µg/mL and 5.2 mg/mL) were tested; also called 5.948.1 (recombinant); 5.948.1 - Batch 1

— patent US20110064726A1 (published 2011)
